Test results from paper PMC11976700, “Engineering of Conserved Sequence Motif 1 Residues in Halohydrin Dehalogenase HheC Simultaneously Enhances Activity, Stability, and Enantioselectivity” (ACS Catalysis, 2025).
Changes are numbered by the printed parent chain. In names and notes the source's numbering stands. Where two headings read alike, the source gives them in different places.

Tests used:
OC(CCl)CCl = test system: T1, OC(CCl)CCl; assay: dehalogenation, halide release assay, Michaelis-Menten fit; assay type: biochemical, Agrobacterium tumefaciens; conditions: 25 mM Tris-SO4 pH 7.0, 30 °C
T1 construct: E. coli BL21(DE3); homotetramer
From the text: (§1) dehalogenation, halide release assay, Michaelis-Menten fit on HheC

ClCC1CO1 = assay: purified protein; conditions: 2 mM MOPS-SO4 pH 7.0, 30 °C
[1] = substrate: OC(CCl)CCl; assay: dehalogenation, halide release assay, Michaelis-Menten fit; assay type: biochemical, Agrobacterium tumefaciens; conditions: 25 mM Tris-SO4 pH 7.0, 30 °C
From the text: as §1

purified protein = substrate: ClCC1CO1; assay: purified protein; conditions: 2 mM MOPS-SO4 pH 7.0, 30 °C, fixed nonsaturating azide (100 mM in table footnote, 60 mM in methods)
[2] = substrate: C1CCC2OC2C1; assay type: biochemical, Ilumatobacter coccineus; conditions: 2 mM MOPS-SO4 pH 7.0, 22 °C, fixed azide (100 mM in table footnote, 60 mM in methods)
[3] = substrate: C1CCC2OC2C1; assay type: biochemical, Ilumatobacter coccineus; conditions: 2 mM MOPS-SO4 pH 7.0, 22 °C, fixed azide (100 mM in table footnote, 60 mM in methods); remark: listed apart in the source
[4] = substrate: C1CCC2OC2C1; assay type: biochemical, Ilumatobacter coccineus; conditions: 2 mM MOPS-SO4 pH 7.0, 22 °C, fixed 100 mM azide
[5] = substrate: C1CCC2OC2C1; assay type: biochemical, Ilumatobacter coccineus; conditions: 2 mM MOPS-SO4 pH 7.0, 22 °C, fixed azide (100 mM in table footnote, 60 mM in methods); remark: listed apart in the source
[6] = fixed nonsaturating azide (100 mM in table footnote, 60 mM in methods)

In the case of HheC (Agrobacterium tumefaciens; T7S), the Km (OC(CCl)CCl) is reported as 0.81 ± 0.23 mM, the kcat (OC(CCl)CCl) is reported as 1.37 ± 0.07 s⁻¹ and the K0.5 (ClCC1CO1; [6]) is reported as 40.3 ± 6.88 mM.

HheC (Agrobacterium tumefaciens; F12Y) showed a Km (OC(CCl)CCl) of 0.98 ± 0.19 mM, a kcat (OC(CCl)CCl) of 6.30 ± 0.26 s⁻¹ and a K0.5 (ClCC1CO1; [6]) of 14.2 ± 0.67 mM.

HheC (Agrobacterium tumefaciens; G14A) was tested, and the Km (OC(CCl)CCl) was 0.92 ± 0.37 mM, the kcat (OC(CCl)CCl) was 0.05 ± 0.00 s⁻¹ and the K0.5 (ClCC1CO1; fixed 100 mM azide) was 49.5 ± 1.52 mM.

B1: HheC (Agrobacterium tumefaciens) (protein)
chain: MSTAIVTNVKHFGGMGSALRLSEAGHTVACHDESFKQKDELEAFAETYPQLKPMSEQEPAELIEAVTSAYGQVDVLVSNDIFAPEFQPIDKYAVEDYRGAVEALQIRPFALVNAVASQMKKRKSGHIIFITSATPFGPWKELSTYTSARAGACTLANALSKELGEYNIPVFAIGPNYLHSEDSPYFYPTEPWKTNPEHVAHVKKVTALQRLGTQKELGELVAFLASGSCDYLTGQVFWLAGGFPMIERWPGMPE
notes: E. coli BL21(DE3); homotetramer
In the case of B1, the Km [1] is reported as 0.45 ± 0.14 mM, the kcat [1] is reported as 1.84 ± 0.11 s⁻¹ and the K0.5 (purified protein) is reported as 18.8 ± 1.24 mM.

B2: HheG (Ilumatobacter coccineus YM16-304; T13S) (protein)
chain: MSNAENRPVALISMATGYVGPALARTMADRGFDLVLHGTAGDGTMVGVEESFDSQIADLAKRGADVLTISDVDLTTRTGNQSMIERVLERFGRLDSACLVTGLIVTGKFLDMTDDQWAKVKATNLDMVFHGLQAVLPPMVAAGAGQCVVFTSATGGRPDPMVSIYGGTRAGANGIVRAVGLEHARHGVQVNAIGTNYMDFPGFLKASRADGDPERRAMIEAQVPLRRLGTMDELSSVTAGLLDGSNRFQTGQFFDFSGGWGA
notes: as for B1
Molecule B2 has a K0.5 [2] of 44.8 ± 1.29 mM.

B3: HheG (Ilumatobacter coccineus YM16-304; Y18F) (protein)
chain: B2 chain with S13T, Y18F
notes: as for B1
For B3, the K0.5 [3] was 66.4 ± 1.42 mM.

B4: HheG (Ilumatobacter coccineus YM16-304; G20A) (protein)
chain: B2 chain with S13T, G20A
notes: as for B1
B4 showed a K0.5 [4] of 42.2 ± 3.64 mM.

B5: HheG (Ilumatobacter coccineus YM16-304) (protein)
chain: B2 chain with S13T
notes: as for B1
B5 gave a K0.5 [5] of 39.4 ± 2.69 mM.
